Measurements reported in patent CN111303279A (INST PATHOGEN BIOLOGY CAMS, dated 2020).

What was measured:
SARS-CoV-2刺突蛋白RBD区重组蛋白 [1] = target: T1, SARS-CoV-2刺突蛋白RBD区重组蛋白 (SARS-CoV-2, UniProt P0DTC2 319-541); assay: SPR, BIAcore T-200, RBD amine-coupled on CM5 chip, VHH in flow
SARS-CoV-2刺突蛋白RBD区重组蛋白 [2] = target: T1, SARS-CoV-2刺突蛋白RBD区重组蛋白; assay: SPR, BIAcore T-200; range told of the group, this end tied to 4D8 by table 1
[3] = target: SARS-CoV-2病毒的包膜刺突糖蛋白(即S蛋白) (SARS-CoV-2, UniProt P0DTC2 14-1273); assay: cell-based or functional assay
SARS-CoV-2刺突蛋白RBD区重组蛋白 [4] = target: T1, SARS-CoV-2刺突蛋白RBD区重组蛋白; assay: SPR, BIAcore T-200; range told of the group, this end tied to 5F8 by table 1

| Binder | Kd (SARS-CoV-2刺突蛋白RBD区重组蛋白 [1]) | koff (SARS-CoV-2刺突蛋白RBD区重组蛋白 [1]) | kon (SARS-CoV-2刺突蛋白RBD区重组蛋白 [1]) | Kd (SARS-CoV-2刺突蛋白RBD区重组蛋白 [2]) | 抑制SARS-CoV-2假型病毒感染 IC50 (luciferase, Calu-3细胞) [3] | Kd (SARS-CoV-2刺突蛋白RBD区重组蛋白 [4]) |
| --- | --- | --- | --- | --- | --- | --- |
| 单域抗体4D8 (VHH) VHH: QVQLVESGGGLVQPGGSLRLSCAASGNIDSTRYHGWFRQAPGKGLEAVAAIKGVWPEDYYADSVKGRFTISRDNSKNTLYLQMNSLRAEDTAVYYCAADQYEWWVPGEVGPYLYWGQGTQVTVSS | 34 nM | 0.00613 s⁻¹ | 180000 M⁻¹ s⁻¹ | 33.9 nM | 0.247 µg/mL |  |
| 单域抗体2F2 (VHH) VHH: QVQLVESGGGLVQPGGSLRLSCAASGLAQSKWAYGWFRQAPGKGLEAVAAIDVATGPWYYADSVKGRFTISRDNSKNTLYLQMNSLRAEDTAVYYCAAHHIPTKHPAFPDFRDYWGQGTQVTVSS | 0.846 nM | 0.000313 s⁻¹ | 370000 M⁻¹ s⁻¹ |  | 0.0235 µg/mL |  |
| 单域抗体1E2 (VHH) VHH: QVQLVESGGGLVQPGGSLRLSCAASGADAFVIIGGWFRQAPGKGLEAVAAIAWTDQHEYYADSVKGRFTISRDNSKNTLYLQMNSLRAEDTAVYYCAAQDSAYIKSKGSRAYEYWGQGTQVTVSS | 21.1 nM | 0.00518 s⁻¹ | 245000 M⁻¹ s⁻¹ |  | 0.31 µg/mL |  |
| 单域抗体3F11 (VHH) VHH: QVQLVESGGGLVQPGGSLRLSCAASGGNAAERMAGWFRQAPGKGLEAVAAIYYAKFGPYYADSVKGRFTISRDNSKNTLYLQMNSLRAEDTAVYYCAAEAFVQSPYSGSHTTKYWGQGTQVTVSS | 3.15 nM | 0.00675 s⁻¹ | 2.14e+06 M⁻¹ s⁻¹ |  | 0.0038 µg/mL |  |
| 单域抗体5F8 (VHH) VHH: QVQLVESGGGLVQPGGSLRLSCAASGRQAVVFGWFRQAPGKGLEAVAAIHVPAKNRYYADSVKGRFTISRDNSKNTLYLQMNSLRAEDTAVYYCAAHYEFNDFVWQGYSSDYWGQGTQVTVSS | 0.716 nM | 0.000211 s⁻¹ | 295000 M⁻¹ s⁻¹ |  | 0.00338 µg/mL | 0.71 nM |
